Patent US20240174744A1 (SCIRHOM, published 2024)

B1: antibody 51 (antibody, V domains shown)
VH: QVQLQQSGAELVKPGASVKISCKASGYTFSNYWMNWVKQRPGKGLEWIGQIYPGDGDTKYNGKFKNKATLTADKSSSTAYMQFSSLTSEDSAVYFCARGDLVFVYWGLGTLVTVSA
VL: DVQITQSPSYLAVSPGETITINCRASKNIRKYLAWYQEKPGKTNKLLIYSGSTSQSGVPSRFSGSGSGTDFTLTISSLEPEDFAMYYCQQHNEYPYTFGGGTKLEIK
notes: Mouse IgG, kappa light chain; also called clone #51
B2: antibody 47 (antibody, V domains shown)
VH: QVQLQQSGAELVRPGTSVKVSCKASGYAFTNYLIEWVKQRPGQGLEWIGVINPGSGFTNYNEKFKGKAILNADKSSSTAYMQLISLTSEDSAVYFCARDLKRAMDHWGQGTSVTVSS
VL: DIQMTQSPASQSASLGESVTITCLASQTIGTWLAWYQQKPGKSPQLLIHAATSLADGVPSRFSGSGSGTKFSFKISSLQAEDFVSYYCQQIYSSPYTFGGGTKLEIK
notes: Mouse IgG, kappa light chain; also called clone #47

Target: T1, hiR2-FL-WT-FLAG (human iRhom2 full length wild type C-terminally tagged with the triple-FLAG epitope) (human, UniProt Q6PJF5 1-856)
T1 construct: also called expressed by MEF-DKO-hiR2-FL-WT-FLAG cells
T1 sequence: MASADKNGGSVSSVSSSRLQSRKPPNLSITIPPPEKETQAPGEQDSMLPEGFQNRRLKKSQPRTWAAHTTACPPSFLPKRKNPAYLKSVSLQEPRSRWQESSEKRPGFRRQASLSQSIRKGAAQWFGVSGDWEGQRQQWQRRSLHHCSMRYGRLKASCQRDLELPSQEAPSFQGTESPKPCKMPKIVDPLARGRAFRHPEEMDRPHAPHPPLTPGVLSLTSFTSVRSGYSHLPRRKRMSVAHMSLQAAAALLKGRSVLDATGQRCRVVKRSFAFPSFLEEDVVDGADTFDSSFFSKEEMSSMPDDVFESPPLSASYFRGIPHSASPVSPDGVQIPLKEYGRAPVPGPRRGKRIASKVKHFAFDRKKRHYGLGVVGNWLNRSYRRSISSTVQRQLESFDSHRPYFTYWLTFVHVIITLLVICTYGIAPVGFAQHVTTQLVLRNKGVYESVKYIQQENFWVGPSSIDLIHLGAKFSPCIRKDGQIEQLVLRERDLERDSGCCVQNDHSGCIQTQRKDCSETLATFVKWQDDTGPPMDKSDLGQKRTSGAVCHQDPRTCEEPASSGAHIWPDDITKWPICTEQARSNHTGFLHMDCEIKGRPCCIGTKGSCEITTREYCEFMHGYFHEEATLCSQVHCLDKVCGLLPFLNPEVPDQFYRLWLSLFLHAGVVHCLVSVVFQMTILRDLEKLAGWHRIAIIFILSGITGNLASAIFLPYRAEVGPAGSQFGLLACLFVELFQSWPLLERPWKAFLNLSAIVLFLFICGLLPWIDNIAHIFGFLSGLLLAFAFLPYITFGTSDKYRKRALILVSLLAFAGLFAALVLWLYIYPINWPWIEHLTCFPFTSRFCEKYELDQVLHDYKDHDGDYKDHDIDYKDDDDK
Assay: FACS, MEF-DKO-hiR2-FL-WT-FLAG cells, 3 µg/ml
Method: In brief, immortalized MEF-DKO-EV control cells, MEF-DKO-hiR2-FL-WT-FLAG cells and MEF-DKO-miR2-FL-WT-FLAG cells were harvested with 10 mM EDTA in PBS, washed and resuspended in FACS buffer (PBS, 3% FBS, 0.05% sodium azide), and seeded in Nunc U-bottom 96-well plates (Thermo Fisher Scientific, USA) at approximately 3×10⁵ cells per well. To pellet cells and remove supernatants, the plates were centrifuged at 1,500 rpm and 4° C. for 3 minutes. For primary staining, cells were resuspended in 100 μl per well of either FACS buffer alone (controls), mouse monoclonal anti-FLAG IgG (Sigma-Aldrich, USA) at 3 μg/ml FACS buffer or the antibodies of the present disclosure also at 3 μg/ml FACS buffer and incubated on ice for 1 hour. Afterwards, plates were centrifuged at 1,500 rpm and 4° C. for 3 minutes and washed twice with 200 μl per well of FACS buffer. For secondary staining, cells were spun down and resuspended in 100 μl per well of PE-conjugated goat anti-mouse IgG F(ab′)2 detection fragment (Dianova, Germany) diluted 1:100 in FACS buffer. Protected from light, the cell suspensions were incubated on ice for 1 hour. Plates were then centrifuged at 1,500 rpm and 4° C. for 3 minutes and washed three times with 200 μl per well of FACS buffer. Finally, cells were resuspended in 150 μl per well of FACS buffer and analyzed using a BD Accuri™ C6 Plus flow cytometer (Becton Dickinson, Germany).

Binder | binding result
B1 | binds
B2 | binds
